Values quoted from earlier work as cited in patent US9925277B2, “Polynucleotide compositions containing amino acids” (ModernaTX, Inc., priority 2013, dated 2018).

Target: Factor IX (Homo sapiens, UniProt P00740, R384L)
Conditions: mutation at position R338L

Factor IX, sequence (P00740 47-461 R384L): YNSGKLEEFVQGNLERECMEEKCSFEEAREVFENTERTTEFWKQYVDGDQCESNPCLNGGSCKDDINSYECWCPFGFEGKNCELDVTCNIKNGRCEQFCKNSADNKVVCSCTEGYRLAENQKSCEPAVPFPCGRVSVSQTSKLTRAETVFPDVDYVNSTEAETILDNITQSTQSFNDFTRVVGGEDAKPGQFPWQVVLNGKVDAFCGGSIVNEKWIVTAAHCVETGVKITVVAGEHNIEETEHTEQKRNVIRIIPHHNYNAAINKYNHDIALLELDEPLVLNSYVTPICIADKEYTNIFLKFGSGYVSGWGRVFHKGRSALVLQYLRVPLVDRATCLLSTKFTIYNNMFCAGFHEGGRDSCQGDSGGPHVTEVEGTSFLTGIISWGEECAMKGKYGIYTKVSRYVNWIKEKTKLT

FIX Padua: Factor IX protein with mutation at position R338L, hyperactive naturally occurring variant
increased activity of Factor IX protein: 10 fold
